What all share (test): thermodynamic integration MD simulation (TIMD; computed, not an experimental measurement)
Assay [1] addresses rat gephyrin E-domain (amino acids 318-736) G545S (other chain of the homodimer). To be noted: E-domain dimer; value per mutation point; read off a plot.
Assay [2] has as its target rat gephyrin E-domain (amino acids 318-736) D664N (other chain of the homodimer). To be noted: E-domain dimer; value per mutation point; read off a plot.
Assay [3] concerns the target rat gephyrin G-domain (amino acids 1-188) V43L (other chains of the homotrimer). To be noted: G-domain trimer; value per mutation point; read off a plot.
Assay [4] concerns the target rat gephyrin E-domain (amino acids 318-736) G545A (other chain of the homodimer). To be noted: E-domain dimer; value per mutation point; read off a plot.
The target in assay [5] is rat gephyrin E-domain (amino acids 318-736) G375D (other chain of the homodimer). To be noted: E-domain dimer; value per mutation point; read off a plot.
Assay [6] has as its target rat gephyrin G-domain (amino acids 1-188) A91T (other chains of the homotrimer). The settings on record: G-domain trimer; value per mutation point; read off a plot.

This passage reports ddG results from article PMC7822942.

With “rat gephyrin E-domain WT (amino acids 318-736) G545S”, the ddG in assay [1] was 0.837 kJ/mol.
Regarding “rat gephyrin E-domain WT (amino acids 318-736) D664N”, in assay [2], the ddG was -2.93 kJ/mol.
For the substance “rat gephyrin G-domain WT (amino acids 1-188) V43L”, in assay [3], the ddG was -3.97 kJ/mol.
Turning to “rat gephyrin E-domain WT (amino acids 318-736) G545A”, the ddG in assay [4] was 1.26 kJ/mol.
In turn, “rat gephyrin E-domain WT (amino acids 318-736) G375D” returned a ddG in assay [5] of 23.8 kJ/mol.
The substance “rat gephyrin G-domain WT (amino acids 1-188) A91T” returned a ddG in assay [6] of 7.11 kJ/mol.
